B1: SHC-transforming protein 1 (Homo sapiens), P29353-1 (parent)
chain: MDLLPPKPKYNPLRNESLSSLEEGASGSTPPEELPSPSASSLGPILPPLPGDDSPTTLCSFFPRMSNLRLANPAGGRPGSKGEPGRAADDGEGIVGAAMPDSGPLPLLQDMNKLSGGGGRRTRVEGGQLGGEEWTRHGSFVNKPTRGWLHPNDKVMGPGVSYLVRYMGCVEVLQSMRALDFNTRTQVTREAISLVCEAVPGAKGATRRRKPCSRPLSSILGRSNLKFAGMPITLTVSTSSLNLMAADCKQIIANHHMQSISFASGGDPDTAEYVAYVAKDPVNQRACHILECPEGLAQDVISTIGQAFELRFKQYLRNPPKLVTPHDRMAGFDGSAWDEEEEEPPDHQYYNDFPGKEPPLGGVVDMRLREGAAPGAARPTAPNAQTPSHLGATLPVGQPVGGDPEVRKQMPPPPPCPGRELFDDPSYVNVQNLDKARQAVGGAGPPNPAINGSAPRDLFDMKPFEDALRVPPPPQSVSMAEQLRGEPWFHGKLSRREAEALLQLNGDFLVRESTTTPGQYVLTGLQSGQPKHLLLVDPEGVVRTKDHRFESVSHLISYHMDNHLPIISAGSELCLQQPVERKL

Variants of: B1
Conditions: with grb2_human GRB2, P62993
Chain of grb2_human GRB2, P62993 (P62993 whole entry, looked up): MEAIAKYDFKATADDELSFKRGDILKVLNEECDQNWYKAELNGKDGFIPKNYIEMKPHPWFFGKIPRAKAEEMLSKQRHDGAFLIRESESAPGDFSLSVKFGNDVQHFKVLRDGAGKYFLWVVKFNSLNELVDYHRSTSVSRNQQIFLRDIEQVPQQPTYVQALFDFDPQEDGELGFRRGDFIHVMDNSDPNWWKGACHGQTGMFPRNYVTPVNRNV
In the case of MDLLPPKPKYNPLRNESLSSLEEGASGSTPPEELPSPSASSLGPILAPLAGDDSPTTLCSFFPRMSNLRLANPAGGRPGSKGEPGRAADDGEGIVGAAMPDSGPLPLLQDMNKLSGGGGRRTRVEGGQLGGEEWTRHGSFVNKPTRGWLHPNDKVMGPGVSYLVRYMGCVEVLQSMRALDFNTRTQVTREAISLVCEAVPGAKGATRRRKPCSRPLSSILGRSNLKFAGMPITLTVSTSSLNLMAADCKQIIANHHMQSISFASGGDPDTAEYVAYVAKDPVNQRACHILECPEGLAQDVISTIGQAFELRFKQYLRNPPKLVTPHDRMAGFDGSAWDEEEEEPPDHQYYNDFPGKEPPLGGVVDMRLREGAAPGAARPTAPNAQTPSHLGATLPVGQPVGGDPEVRKQMPPPPPCPGRELFDDPSYVNVQNLDKARQAVGGAGPPNPAINGSAPRDLFDMKPFEDALRVPPPPQSVSMAEQLRGEPWFHGKLSRREAEALLQLNGDFLVRESTTTPGQYVLTGLQSGQPKHLLLVDPEGVVRTKDHRFESVSHLISYHMDNHLPIISAGSELCLQQPVERKL [P47A;P50A], the “effect of a mutation on the interaction” value is reported as “decreasing interaction”.
